{
  "source": "patent US20250354131A1",
  "about": "“NOVEL GLYCOSYNTHASE” (CarboCode S.A., priority 2021, published 2025)",
  "molecules": {"B1": {"name": "SEQ ID NO: 4: EGC synthase, E350S, Δ1-24, N-term. His-Tag; Rhodococcus sp. AQ5-07 (protein)", "chain": "MGHHHHHHMQGSLPTSGSAGGTDVPPSYLTDDAGRSLILRGFNTASSAKSEPEPGQYDQEYLDRVEDRVSWYAERGYKVMLDMHQDVYSGAITPEGNSGNGAGNIGNGAPAWATYMDGLPVSPQDRWELYYIQPGVMRAFDNFWNTTGQHPELVEHYANAWQAVAERFAGNDTVVAYDLMNEPWGGSLQGPAFEGGPLAALYQRTTNAIREVDQDSWVCVAPQAVGVNQGVPSGLTKINDPRAGEQRIAYCPHLYPLPLDLGDGYSGLSRTLTDATIDTWRDSVEHIAGNVLGGVPVILASFGLDTTLPGATDYIDRVYATARELGAGVSYWSSDPGPWGPYLPDGTQTLLVDTLNRPYPRAVAGTPTEWSSSVDRLQLTFTPNPAVTAPTEIYLPESGFPGGVDVAGADIVNWNPQSRLLTVEAPDGMPKFTEADLEREHADMGTNFVRFLISWRSVTADDAGPVTVTVTPAS", "modifications": "N-terminal His-tag"}, "B2": {"name": "SEQ ID NO: 8: EGC synthase, E350S, D312Y, Δ1-24, N-term. His-Tag, Δ146-152; Rhodococcus sp. AQ5-07 (protein)", "chain": "MGHHHHHHMQGSLPTSGSAGGTDVPPSYLTDDAGRSLILRGFNTASSAKSEPEPGQYDQEYLDRVEDRVSWYAERGYKVMLDMHQDVYSGAITPEGNIGNGAPAWATYMDGLPVSPQDRWELYYIQPGVMRAFDNFWNTTGQHPELVEHYANAWQAVAERFAGNDTVVAYDLMNEPWGGSLQGPAFEGGPLAALYQRTTNAIREVDQDSWVCVAPQAVGVNQGVPSGLTKINDPRAGEQRIAYCPHLYPLPLDLGYGYSGLSRTLTDATIDTWRDSVEHIAGNVLGGVPVILASFGLDTTLPGATDYIDRVYATARELGAGVSYWSSDPGPWGPYLPDGTQTLLVDTLNRPYPRAVAGTPTEWSSSVDRLQLTFTPNPAVTAPTEIYLPESGFPGGVDVAGADIVNWNPQSRLLTVEAPDGMPKFTEADLEREHADMGTNFVRFLISWRSVTADDAGPVTVTVTPAS", "modifications": "N-terminal His-tag"}, "B3": {"name": "SEQ ID NO: 5: EGC synthase, E350S, Δ146-152; Rhodococcus sp. AQ5-07 (protein)", "chain": "MRRIPLSALIVAGSLILGGGIAAAQGSLPTSGSAGGTDVPPSYLTDDAGRSLILRGFNTASSAKSAPDGMPKFTEADLEREHADMGTNFVRFLISWRSVEPEPGQYDQEYLDRVEDRVSWYAERGYKVMLDMHQDVYSGAITPEGNIGNGAPAWATYMDGLPVSPQDRWELYYIQPGVMRAFDNFWNTTGQHPELVEHYANAWQAVAERFAGNDTVVAYDLMNEPWGGSLQGPAFEGGPLAALYQRTTNAIREVDQDSWVCVAPQAVGVNQGVPSGLTKINDPRAGEQRIAYCPHLYPLPLDLGDGYSGLSRTLTDATIDTWRDSVEHIAGNVLGGVPVILASFGLDTTLPGATDYIDRVYATARELGAGVSYWSSDPGPWGPYLPDGTQTLLVDTLNRPYPRAVAGTPTEWSSSVDRLQLTFTPNPAVTAPTEIYLPESGFPGGVDVAGADIVNWNPQSRLLTVETADDAGPVTVTVTPAS"}, "B4": {"name": "SEQ ID NO: 17: Reference EGC synthase, E351S, D314Y, A153T, Δ1-30, N-term. His-Tag; Rhodococcus sp. strain M-777 (protein)", "chain": "MGSSHHHHHHSSGLVPRGSHMSGSGSGSGTALTPSYLKDDDGRSLILRGFNTASSAKSAPDGMPQFTEADLAREYADMGTNFVRFLISWRSVEPAPGVYDQQYLDRVEDRVGWYAERGYKVMLDMHQDVYSGAITPEGNSGNGTGAIGNGAPAWATYMDGLPVEPQPRWELYYIQPGVMRAFDNFWNTTGKHPELVEHYAKAWRAVADRFADNDAVVAYDLMNEPFGGSLQGPAFEAGPLAAMYQRTTDAIRQVDQDTWVCVAPQAIGVNQGLPSGLTKIDDPRAGQQRIAYCPHLYPLPLDIGYGHEGLARTLTDVTIDAWRANTAHTARVLGDVPIILGSFGLDTTLPGARDYIERVYGTAREMGAGVSYWSSDPGPWGPYLPDGTQTLLVDTLNKPYPRAVAGTPTEWSSTSDRLQLTIEPDAAITAPTEIYLPEAGFPGDVHVEGADVVGWDRQSRLLTVRTPADSGNVTVTVTPAA", "modifications": "N-terminal His-tag"}, "B5": {"name": "SEQ ID NO: 6: EGC synthase, E350S, Δ1-24, N-term. His-Tag, Δ146-152; Rhodococcus sp. AQ5-07 (protein)", "chain": "B2 chain with Y256D", "modifications": "N-terminal His-tag"}, "B6": {"name": "SEQ ID NO: 15: EGC synthase, E339S, Δ1-26; Rhodococcus hoagii 103S (SEQ ID NO: 14) (protein)", "chain": "MAPPATPITTLQADGTHLVDGYGRTVLLHGVNNVDKDAPYLPAGETLTPQDIDILVRHGFNTVRLGTSFDALMPQRGQIDEAYLDRLTGVVDALTARGMHVLLDNHQDGLSKAWGGNGFPEWAIESRPREWEPNPGFPLYYLMPSLNAGWDEVWGNTHGALDHLGTALGALAERVEGKPGVMGIELLNEPWPGSRFLSCFPNGCPDFDRTYQAAMQKLTDAVRAQNPTIPVYWEPNVTWNQMMPSNLFAPPVTPALTTADVVFAPHDYCIPSQLAIYLGLPQALRGLCVPQQDLTWSNIDAITERANVPTVITSFGDGDPTVLKNTLARADERFIGWQYWHFGAGNATDPFLGEVGRQLVRTYPQATAGEPGRMIFDADNGDFAYRFTPRAATRPTEIFVSDLHYPDGYAVQVDGGQVTSAPGARIVTVVADGSGPVTVKINRPGSAGAEVPDGPIETSSSGSSGSS"}, "B7": {"name": "SEQ ID NO: 18: EGC synthase, E351S, D314Y, Δ1-30, N-term. His-Tag, Δ148-154; Rhodococcus sp. strain M-777 (protein)", "chain": "MGSSHHHHHHSSGLVPRGSHMSGSGSGSGTALTPSYLKDDDGRSLILRGFNTASSAKSAPDGMPQFTEADLAREYADMGTNFVRFLISWRSVEPAPGVYDQQYLDRVEDRVGWYAERGYKVMLDMHQDVYSGAITPEGAIGNGAPAWATYMDGLPVEPQPRWELYYIQPGVMRAFDNFWNTTGKHPELVEHYAKAWRAVADRFADNDAVVAYDLMNEPFGGSLQGPAFEAGPLAAMYQRTTDAIRQVDQDTWVCVAPQAIGVNQGLPSGLTKIDDPRAGQQRIAYCPHLYPLPLDIGYGHEGLARTLTDVTIDAWRANTAHTARVLGDVPIILGSFGLDTTLPGARDYIERVYGTAREMGAGVSYWSSDPGPWGPYLPDGTQTLLVDTLNKPYPRAVAGTPTEWSSTSDRLQLTIEPDAAITAPTEIYLPEAGFPGDVHVEGADVVGWDRQSRLLTVRTPADSGNVTVTVTPAA", "modifications": "N-terminal His-tag"}},
  "note": "Changes are numbered by the printed parent chain. Names and notes keep the numbering of the source.",
  "data": [
    {"experiment": "Km determination of EGC synthases with lactosyl fluoride and sphingosine (HPLC-ELSD)", "assay_type": "biochemical", "settings": "Donor Lac-F, acceptor sphingosine; cell-free extract", "protocol": "(§1) The assay mixture contained 1 M sodium acetate buffer at pH 5.5, 20 mg/mL sphingosine-base and EGCS enzyme. As a reference, EGC synthase of SEQ ID NO:17 was used. Six different concentrations of lactosyl fluoride (Lac-F) ranging from 5 mg/mL to 164 mg/mL were assayed. From every assay mixture, four time points were collected by quenching the reaction with 19× volume of DMSO. The samples were analyzed by HPLC-ELSD analysis and conversion rates were determined by linear regression.", "units": {"U/mg CFE": "U/mg CFE"}, "values": [
      {"molecule": "B1", "U/mg CFE": 0.20},
      {"molecule": "B2", "U/mg CFE": 0.60},
      {"molecule": "B3", "U/mg CFE": 0.61},
      {"molecule": "B4", "U/mg CFE": 0.074}
    ]},
    {"experiment": "Km determination of EGC synthases with lactosyl fluoride and sphingosine (HPLC-ELSD)", "assay_type": "biochemical", "settings": "relative to reference SEQ ID NO: 17; donor Lac-F, acceptor sphingosine", "protocol": "as §1", "values": [
      {"molecule": "B1", "Fold improvement to reference": 2.7},
      {"molecule": "B2", "Fold improvement to reference": 8.1},
      {"molecule": "B3", "Fold improvement to reference": 8.2},
      {"molecule": "B4", "Fold improvement to reference": 1.0}
    ]},
    {"experiment": "Production of lactosyl-6-hydroxysphingosine: conversion rates of different enzymes", "assay_type": "biochemical", "settings": "Time 1 h; 30 mg/mL 6-OH-Sph, 300 mg/mL Lac-F, 1 M NaOAc, pH 6.0, 37° C.", "protocol": "(§2) Reaction contained: 30 mg/mL 6-OH-Sph, 300 mg/mL Lac-F, enzyme, 1 M NaOAc.\n(§3) Reactions were executed at pH 6.0, 37° C. and 1500 rpm stirring. Product analysis was done by ELSD (% rel. conversion) and LC-MS using standard conditions for Lac-Sph analysis.", "units": {"Conversion [% ELSD area product]": "% ELSD area product"}, "values": [
      {"molecule": "B2", "Conversion [% ELSD area product]": 100},
      {"molecule": "B5", "Conversion [% ELSD area product]": 100},
      {"molecule": "B6", "Conversion [% ELSD area product]": 3.7},
      {"molecule": "B4", "Conversion [% ELSD area product]": 99.4},
      {"molecule": "B7", "Conversion [% ELSD area product]": 99.3}
    ]},
    {"experiment": "Production of lactosyl-6-hydroxysphingosine: conversion rates of different enzymes", "assay_type": "biochemical", "settings": "Time 2 h; 30 mg/mL 6-OH-Sph, 300 mg/mL Lac-F, 1 M NaOAc, pH 6.0, 37° C.", "protocol": "as §2, §3", "units": {"Conversion [% ELSD area product]": "% ELSD area product"}, "values": [
      {"molecule": "B2", "Conversion [% ELSD area product]": 100},
      {"molecule": "B5", "Conversion [% ELSD area product]": 100},
      {"molecule": "B6", "Conversion [% ELSD area product]": 9.1},
      {"molecule": "B4", "Conversion [% ELSD area product]": 100},
      {"molecule": "B7", "Conversion [% ELSD area product]": 99.8}
    ]},
    {"experiment": "Enzymatic conversion of lactosyl sphingoid bases with β-galactosidase", "assay_type": "biochemical", "settings": "within about 48 to about 72 hours at about 37° C.; 1 M NaOAc pH 5.0, 5 g/L β-cyclodextrin, 5 g/L enzyme", "protocol": "Enzymatic reactions were performed in 1 M NaOAc buffer (pH set to 5.0). A typical reaction mixture contained 50-100 g/L of lactosyl sphingoid base (synthesised according to the general procedure of Example 3 or Example 5), 5 g/L of β-cyclodextrin, 5 g/L of β-galactosidase (e.g. from A. oryzae). Typically, the reaction proceeds up to 99% conversion within about 48 to about 72 hours at about 37° C. and continuous stirring. The enzymatic reaction was followed by LCMS analysis (for methods and conditions see Example 9).\nSamples (25 μL) were taken from reaction mixtures, mixed with DMSO (950 μL) and subjected to centrifugation (16.000 rpm, 5 min) and analyzed with a Shimadzu ECO 2020 LC system coupled with a Shimadzu LCMS-2020 system. The HPLC analysis was performed using a Merck Ascentis Express RP-Amide column (15 cm×4.6 mm, 2.7 μm). For analysis of compounds the eluent consisted of solvent D (2 mM ammonium formate, […], 75% v/v MeOH, 25% v/v ACN)-solvent C (2 mM formic acid in filtered ddH2O), and the following gradient was applied as stated in the table below. The flow rate was 1 mL/min. The MS analysis was performed under the following conditions: ESI positive ionization, vaporizer temperature 300° C.; LC-MS mode, 1:1 split of flow; ESI negative ionization, vaporizer temperature 300° C.; LC-MS mode, 1:1 split of flow.", "values": [
      {"molecule": "β-galactosidase", "conversion": "up to 99%"}
    ]}
  ]
}
